From patent US20250019439A1 (Adimab, published 2025)

What was measured:
ADI-22523 Fab [1] = molecular target: T1, ADI-22523 Fab; experiment: BLI; tip ADI-34145 IgG, solution anti-CD3 Fab
T1 construct: anti-CD3 Fab by papain digestion of the IgG
Experimental: (§1) ForteBio affinity measurements were performed generally as previously described (Estep et al., MAbs. 2013 5(2):270-8). Briefly, ForteBio affinity measurements were performed by loading antibody IgG or Fabs on-line onto AHC sensors. Sensors were equilibrated off-line in assay buffer for 30 minutes and then monitored on-line for 60 seconds for baseline establishment. For avid binding measurement, sensors with loaded antibodies were exposed to IgG or Fab solutions for 3 minutes, afterwards they were transferred to assay buffer for 3 minutes for off-rate measurement. Kinetics data were fit using a 1:1 binding model in the data analysis software provided by ForteBio to obtain equilibrium dissociation constant (KD=koff/kₒₙ) values. In each column, tip-immobilized antibodies are listed first and solution antibodies second.
(§2) In each column, tip-immobilized antibodies are listed first and solution antibodies second.

ADI-26906 Fab [2] = molecular target: T2, ADI-26906 Fab; experiment: BLI; tip ADI-34145 IgG, solution anti-CD3 Fab
T2 construct: anti-CD3 Fab by papain digestion of the IgG
Experimental: as §1, §2

ADI-26913 Fab [3] = molecular target: T3, ADI-26913 Fab; experiment: BLI; tip ADI-34145 IgG, solution anti-CD3 Fab
T3 construct: anti-CD3 Fab by papain digestion of the IgG
Experimental: as §1, §2

ADI-26954 Fab [4] = molecular target: T4, ADI-26954 Fab; experiment: BLI; tip ADI-34145 IgG, solution anti-CD3 Fab
T4 construct: anti-CD3 Fab by papain digestion of the IgG
Experimental: as §1, §2

ADI-26913 IgG = molecular target: T5, ADI-26913 IgG; experiment: SPR Carterra avidity, CHO anti-ID, *koff limit
T5 construct: anti-CD3 IgG
Experimental: (§3) Kinetic analysis was conducted at 25° C. in an HBSTE running buffer system (Carterra Cat #3630) using a Carterra LSA (Carterra USA, Salt Lake City, UT). The sample compartment was maintained at 20° C. for the duration of each experiment.
(§4) For antibody capture experiments, a goat anti-human Fc antibody (Jackson ImmunoResearch) was covalently coupled to an HC30M sensor chip surface via standard amine coupling (1:1 EDC:NHS) and then blocked with ethanolamine (1.0 M, pH 8.5). Covalent coupling steps were performed in 25 mM MES buffer (Carterra, Cat #3625) plus 0.05% Tween20. The anti-CD3 antibodies (100 nM in running buffer) were flowed over discrete regions of interest on the chip surface for 5 minutes. […] Dissociation of the anti-idiotype antibodies was monitored for 300s. Several blank buffer samples were injected over the entire chip surface at the start of each non-regenerative kinetic cycle. The preceding blank buffer injection was used for blank surface subtraction. At the end of each non-regenerative kinetic cycle, all surfaces were regenerated via two 30s injections of 10 mM glycine, pH 1.7.
(§5) For data processing and fitting, sensorgrams were double reference subtracted with a baseline drift correction of 4 RU. Sensorgrams were y-aligned and baseline corrected, filtered and cropped to include only the association and dissociation steps. Data was fitted to a 1:1 binding model using Carterra Kinetics Data Analysis software version 1.7.1.3055.

ADI-22523 Fab [5] = molecular target: T1, ADI-22523 Fab; experiment: BLI; tip ADI-34134 IgG, solution anti-CD3 Fab
Experimental: as §1, §2

ADI-26906 Fab [6] = molecular target: T2, ADI-26906 Fab; experiment: BLI; tip ADI-34134 IgG, solution anti-CD3 Fab
Experimental: as §1, §2

ADI-26913 Fab [7] = molecular target: T3, ADI-26913 Fab; experiment: BLI; tip ADI-34134 IgG, solution anti-CD3 Fab
Experimental: as §1, §2

ADI-26916 Fab = molecular target: T6, ADI-26916 Fab; experiment: BLI; tip ADI-34134 IgG, solution anti-CD3 Fab
T6 construct: anti-CD3 Fab by papain digestion of the IgG
Experimental: as §1, §2

ADI-26921 Fab = molecular target: T7, ADI-26921 Fab; experiment: BLI; tip ADI-34134 IgG, solution anti-CD3 Fab
T7 construct: anti-CD3 Fab by papain digestion of the IgG
Experimental: as §1, §2

ADI-26927 Fab = molecular target: T8, ADI-26927 Fab; experiment: BLI; tip ADI-34134 IgG, solution anti-CD3 Fab
T8 construct: anti-CD3 Fab by papain digestion of the IgG
Experimental: as §1, §2

ADI-26928 Fab = molecular target: T9, ADI-26928 Fab; experiment: BLI; tip ADI-34134 IgG, solution anti-CD3 Fab
T9 construct: anti-CD3 Fab by papain digestion of the IgG
Experimental: as §1, §2

ADI-26941 Fab = molecular target: T10, ADI-26941 Fab; experiment: BLI; tip ADI-34134 IgG, solution anti-CD3 Fab
T10 construct: anti-CD3 Fab by papain digestion of the IgG
Experimental: as §1, §2

ADI-26954 Fab [8] = molecular target: T4, ADI-26954 Fab; experiment: BLI; tip ADI-34134 IgG, solution anti-CD3 Fab
Experimental: as §1, §2

ADI-50024 = molecular target: T11, ADI-50024; experiment: SPR Carterra avidity, CHO anti-ID, *koff limit
T11 construct: anti-CD3 antibody made in CHO cells, captured by anti-human Fc
Experimental: as §3, §4, §5

ADI-67445 = molecular target: T12, ADI-67445; experiment: SPR Carterra avidity, CHO anti-ID, *koff limit
T12 construct: anti-CD3 antibody made in CHO cells, captured by anti-human Fc
Experimental: as §3, §4, §5

ADI-67447 = molecular target: T13, ADI-67447; experiment: SPR Carterra avidity, CHO anti-ID, *koff limit
T13 construct: anti-CD3 antibody made in CHO cells, captured by anti-human Fc
Experimental: as §3, §4, §5

ADI-26909 = molecular target: T14, ADI-26909; experiment: SPR Carterra avidity, CHO anti-ID, *koff limit
T14 construct: anti-CD3 antibody made in CHO cells, captured by anti-human Fc
Experimental: as §3, §4, §5

ADI-26919 = molecular target: T15, ADI-26919; experiment: SPR Carterra avidity, CHO anti-ID, *koff limit
T15 construct: anti-CD3 antibody made in CHO cells, captured by anti-human Fc
Experimental: as §3, §4, §5

ADI-26920 IgG = molecular target: T16, ADI-26920 IgG; experiment: SPR Carterra avidity, CHO anti-ID, *koff limit
T16 construct: anti-CD3 IgG
Experimental: as §3, §4, §5

ADI-26921 IgG = molecular target: T17, ADI-26921 IgG; experiment: SPR Carterra avidity, CHO anti-ID, *koff limit
T17 construct: anti-CD3 IgG
Experimental: as §3, §4, §5

ADI-26924 = molecular target: T18, ADI-26924; experiment: SPR Carterra avidity, CHO anti-ID, *koff limit
T18 construct: anti-CD3 antibody made in CHO cells, captured by anti-human Fc
Experimental: as §3, §4, §5

ADI-26943 = molecular target: T19, ADI-26943; experiment: SPR Carterra avidity, CHO anti-ID, *koff limit
T19 construct: anti-CD3 antibody made in CHO cells, captured by anti-human Fc
Experimental: as §3, §4, §5

ADI-74967 = molecular target: T20, ADI-74967; experiment: SPR Carterra avidity, CHO anti-ID, *koff limit
T20 construct: pH-dependent anti-CD3 antibody made in CHO cells
Experimental: as §3, §4, §5

ADI-76357 = molecular target: T21, ADI-76357; experiment: SPR Carterra avidity, CHO anti-ID, *koff limit
T21 construct: anti-CD3 antibody made in CHO cells, captured by anti-human Fc
Experimental: as §3, §4, §5

ADI-76361 = molecular target: T22, ADI-76361; experiment: SPR Carterra avidity, CHO anti-ID, *koff limit
T22 construct: anti-CD3 antibody made in CHO cells, captured by anti-human Fc
Experimental: as §3, §4, §5

CTL-62223 = molecular target: T23, CTL-62223; experiment: SPR Carterra avidity, CHO anti-ID, *koff limit
T23 construct: also called mosunetuzumab
Experimental: as §3, §4, §5

ADI-48650 = molecular target: T24, ADI-48650; experiment: SPR Carterra avidity, CHO anti-ID; CHO-produced ADI-34134 (Table 10C)
T24 construct: pH-dependent anti-CD3 antibody made in CHO cells
Experimental: as §3, §4
(§6) For data processing and fitting, sensorgrams were double reference subtracted with a baseline drift correction of 4 RU. Sensorgrams were y-aligned and baseline corrected, filtered and cropped to include only the association and dissociation steps. […]

ADI-74965 = molecular target: T25, ADI-74965; experiment: as above
T25 construct: pH-dependent anti-CD3 antibody made in CHO cells
Experimental: as §3, §4, §6

T3 sequence (VH, as listed by the source limits assumed, chain 1 of 2): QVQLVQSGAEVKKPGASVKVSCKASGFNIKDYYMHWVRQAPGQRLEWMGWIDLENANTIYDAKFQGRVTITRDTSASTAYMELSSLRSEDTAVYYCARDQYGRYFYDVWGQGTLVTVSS
T3 sequence (VL, as listed by the source limits assumed, chain 2 of 2): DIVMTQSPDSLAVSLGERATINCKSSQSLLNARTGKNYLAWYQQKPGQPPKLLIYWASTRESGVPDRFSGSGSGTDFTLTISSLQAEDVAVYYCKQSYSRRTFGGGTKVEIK
T2 sequence (VH, as listed by the source limits assumed, chain 1 of 2): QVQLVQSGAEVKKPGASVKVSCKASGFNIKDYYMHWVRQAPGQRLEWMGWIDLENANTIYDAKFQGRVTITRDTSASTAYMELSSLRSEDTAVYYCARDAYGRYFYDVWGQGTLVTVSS
T1 sequence (VH, as listed by the source limits assumed, chain 1 of 2): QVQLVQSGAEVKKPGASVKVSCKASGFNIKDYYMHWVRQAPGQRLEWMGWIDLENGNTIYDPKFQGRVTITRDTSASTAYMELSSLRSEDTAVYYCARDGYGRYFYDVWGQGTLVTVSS
T1 sequence (VL, as listed by the source limits assumed, chain 2 of 2): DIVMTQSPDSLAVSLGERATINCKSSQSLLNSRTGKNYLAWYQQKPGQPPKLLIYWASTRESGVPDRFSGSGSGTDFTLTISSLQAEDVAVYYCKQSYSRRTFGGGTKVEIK
T4 sequence (VH, as listed by the source limits assumed, chain 1 of 2): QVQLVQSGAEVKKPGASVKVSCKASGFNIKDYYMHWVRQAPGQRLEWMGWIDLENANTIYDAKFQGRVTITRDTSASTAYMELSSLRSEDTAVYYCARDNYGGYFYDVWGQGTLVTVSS
T4 sequence (VL, as listed by the source limits assumed, chain 2 of 2): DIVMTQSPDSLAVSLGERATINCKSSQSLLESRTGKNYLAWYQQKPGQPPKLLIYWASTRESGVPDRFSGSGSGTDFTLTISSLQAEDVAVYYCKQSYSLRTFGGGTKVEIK
T16 sequence (VH, as listed by the source limits assumed, chain 1 of 2): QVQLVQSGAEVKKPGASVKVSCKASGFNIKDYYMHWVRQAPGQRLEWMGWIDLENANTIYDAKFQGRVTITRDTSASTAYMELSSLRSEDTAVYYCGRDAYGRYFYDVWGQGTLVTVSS
T16 sequence (VL, as listed by the source limits assumed, chain 2 of 2): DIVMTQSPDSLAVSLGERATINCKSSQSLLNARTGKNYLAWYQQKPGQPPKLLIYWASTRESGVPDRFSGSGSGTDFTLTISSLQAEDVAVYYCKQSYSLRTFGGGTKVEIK
T24 sequence (VH, as listed by the source, chain 1 of 2): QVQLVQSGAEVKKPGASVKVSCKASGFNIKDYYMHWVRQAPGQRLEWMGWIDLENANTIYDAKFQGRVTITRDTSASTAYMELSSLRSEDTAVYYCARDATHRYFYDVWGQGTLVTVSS
T24 sequence (VL, as listed by the source, chain 2 of 2): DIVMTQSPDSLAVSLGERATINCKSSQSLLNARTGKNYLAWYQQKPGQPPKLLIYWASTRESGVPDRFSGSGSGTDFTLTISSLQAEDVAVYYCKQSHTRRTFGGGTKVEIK
T8 sequence (VH, as listed by the source limits assumed, chain 1 of 2): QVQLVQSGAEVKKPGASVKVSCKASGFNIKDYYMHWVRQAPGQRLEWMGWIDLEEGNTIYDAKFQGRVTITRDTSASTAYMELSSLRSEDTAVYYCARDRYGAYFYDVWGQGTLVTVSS
T21 sequence (VH, as listed by the source, chain 1 of 2): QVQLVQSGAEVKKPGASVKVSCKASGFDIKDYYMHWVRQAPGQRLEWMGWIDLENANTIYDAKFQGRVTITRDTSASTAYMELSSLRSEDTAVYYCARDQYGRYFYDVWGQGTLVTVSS
T6 sequence (VH, as listed by the source, chain 1 of 2): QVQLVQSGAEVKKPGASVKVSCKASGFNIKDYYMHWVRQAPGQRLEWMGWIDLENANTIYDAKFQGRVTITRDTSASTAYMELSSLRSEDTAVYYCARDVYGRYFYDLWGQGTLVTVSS
T22 sequence (VH, as listed by the source, chain 1 of 2): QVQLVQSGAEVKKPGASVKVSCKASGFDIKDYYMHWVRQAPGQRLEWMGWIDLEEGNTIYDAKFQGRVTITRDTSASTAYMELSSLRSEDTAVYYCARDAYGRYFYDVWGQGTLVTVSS
T13 sequence (VH, as listed by the source limits assumed, chain 1 of 2): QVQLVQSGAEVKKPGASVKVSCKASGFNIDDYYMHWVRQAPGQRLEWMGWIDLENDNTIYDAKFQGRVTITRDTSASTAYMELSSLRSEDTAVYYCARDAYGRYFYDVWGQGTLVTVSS
T9 sequence (VH, as listed by the source limits assumed, chain 1 of 2): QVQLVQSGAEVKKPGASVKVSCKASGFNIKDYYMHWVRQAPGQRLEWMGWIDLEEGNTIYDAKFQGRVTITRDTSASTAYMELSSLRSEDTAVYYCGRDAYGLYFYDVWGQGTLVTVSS
T11 sequence (VH, as listed by the source limits assumed, chain 1 of 2): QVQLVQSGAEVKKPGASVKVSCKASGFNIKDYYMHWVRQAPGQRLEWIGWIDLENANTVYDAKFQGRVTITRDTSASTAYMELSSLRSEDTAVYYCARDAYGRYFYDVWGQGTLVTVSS
T11 sequence (VL, as listed by the source limits assumed, chain 2 of 2): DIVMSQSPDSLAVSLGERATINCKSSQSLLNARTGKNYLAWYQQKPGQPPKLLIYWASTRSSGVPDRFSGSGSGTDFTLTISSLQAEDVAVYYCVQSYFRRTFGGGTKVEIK
T23 sequence (VH, as listed by the source, chain 1 of 2): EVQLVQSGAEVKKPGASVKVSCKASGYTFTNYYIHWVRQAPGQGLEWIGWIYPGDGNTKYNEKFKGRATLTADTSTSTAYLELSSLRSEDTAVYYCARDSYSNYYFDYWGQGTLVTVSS
T23 sequence (VL, as listed by the source, chain 2 of 2): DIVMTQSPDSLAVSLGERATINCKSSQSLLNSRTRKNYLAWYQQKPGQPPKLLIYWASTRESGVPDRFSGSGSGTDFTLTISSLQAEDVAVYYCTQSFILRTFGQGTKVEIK
T20 sequence (VH, as listed by the source, chain 1 of 2): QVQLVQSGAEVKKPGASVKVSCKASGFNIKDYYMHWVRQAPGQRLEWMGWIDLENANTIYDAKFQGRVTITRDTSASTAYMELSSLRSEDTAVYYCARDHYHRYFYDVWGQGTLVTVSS
T20 sequence (VL, as listed by the source, chain 2 of 2): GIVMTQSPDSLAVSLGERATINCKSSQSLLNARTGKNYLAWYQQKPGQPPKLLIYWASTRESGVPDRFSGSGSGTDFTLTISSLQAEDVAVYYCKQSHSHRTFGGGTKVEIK
T25 sequence (VH, as listed by the source, chain 1 of 2): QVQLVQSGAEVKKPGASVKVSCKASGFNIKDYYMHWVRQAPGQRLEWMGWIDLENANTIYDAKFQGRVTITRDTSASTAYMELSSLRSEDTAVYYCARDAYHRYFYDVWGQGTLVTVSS
T25 sequence (VL, as listed by the source, chain 2 of 2): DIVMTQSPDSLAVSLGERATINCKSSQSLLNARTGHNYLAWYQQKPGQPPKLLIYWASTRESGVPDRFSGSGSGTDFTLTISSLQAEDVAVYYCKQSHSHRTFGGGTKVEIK

B1: ADI-34145 IgG (antibody, V domains shown)
VH: EVQLLESGGGLVQPGGSLRLSCAASGFTFSSYAMSWVRQAPGKGLEWVSTISGSGGSTYYADSVKGRFTISRDNSKNTLYLQMNSLRAEDTAVYYCARLGGRRGSGSSYYYYYGMDVWGQGTTVTVSS
VL: not shown
notes: anti-ID IgG
- Kd (ADI-22523 Fab [1]): 4.13 nM
- Kd (ADI-26906 Fab [2]): 3.55 nM
- Kd (ADI-26913 Fab [3]): 7.52 nM
- Kd (ADI-26954 Fab [4]): 19.4 nM
- Kd (ADI-26913 IgG): 4.4 nM

B2: ADI-34134 IgG (antibody, V domains shown)
VH: QVQLVQSGAEVKKPGSSVKVSCKASGGTFSSYAISWVRQAPGQGLEWMGGIIPIFGTANYAQKFQGRVTITADESTSTAYMELSSLRSEDTAVYYCARGAPNYYGSGGYDDGWFDPWGQGTLVTVSS
VL: EIVLTQSPGTLSLSPGERATLSCRASQSVSSDYLAWYQQKPGQAPRLLIYGASSRATGIPDRFSGSGSGTDFTLTISRLEPEDFAVYYCQQFGRVPTFGGGTKVEIK
- Kd (ADI-22523 Fab [5]): 5.62 nM
- Kd (ADI-26906 Fab [6]): 17.8 nM
- Kd (ADI-26913 Fab [7]): 79.8 nM
- Kd (ADI-26916 Fab): 56.5 nM
- Kd (ADI-26921 Fab): 185 nM
- Kd (ADI-26927 Fab): 38.2 nM
- Kd (ADI-26928 Fab): 31 nM
- Kd (ADI-26941 Fab): 138 nM
- Kd (ADI-26954 Fab [8]): 157 nM
- Kd (ADI-50024): 0.26 nM
- Kd (ADI-67445): 0.13 nM
- Kd (ADI-67447): 0.12 nM
- Kd (ADI-26909): 0.11 nM
- Kd (ADI-26919): 0.11 nM
- Kd (ADI-26920 IgG): 0.11 nM
- Kd (ADI-26921 IgG): 0.11 nM
- Kd (ADI-26924): 0.1 nM
- Kd (ADI-26943): 0.1 nM
- Kd (ADI-74967): 0.11 nM
- Kd (ADI-76357): 0.088 nM
- Kd (ADI-76361): 0.094 nM
- Kd (CTL-62223): 0.19 nM
- binding result (ADI-48650): binds
- binding result (ADI-74965): binds
